According to the supplement of paper PMC6757056:
± gives the standard deviation of the averaged measurements.

B1: library; a variant is named by its letters at N, in order (parent)
chain: GCUGUCACCGAGAAACUGUGAAGUAUAUCUUAAACCUGGGCACUUAAAAGAUAUAUGGAGUUAGUAGUGCAACCUGCUCGGUCUGAUGAGUCCNNNNNNGGACGAAACAGC

Columns and labels:
cyclic di-GMP [1] = variants of: B1; experiment: FACS-Seq fitted mean relative fluorescence mCherry/BFP without ligand (log10 relative fluorescence); HEK293T; ligand: cyclic di-GMP (c-di-GMP-II aptamer); higher = higher reporter protein expression; details: ligand present: no
In short: (§1)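 With or without ligand for 48 h, enriched HEK293T libraries carrying a lentiviral ribozyme-switch mCherry reporter and EF1α-BFP were sorted into 6 mCherry/BFP bins. Bin genomic DNA was amplified by PCR, barcoded and sequenced on MiSeq. Fluorescence was taken from normal fits to the resulting bin counts. Each fitted mean of log10(mCherry/BFP) was scaled to five spiked-in control ribozymes.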

cyclic di-GMP [2] = variants of: B1; experiment: normalized RNA/DNA level without ligand (relative to sTRSVctl = 100) (log10 (% of sTRSVctl)); HEK293T; ligand: cyclic di-GMP (c-di-GMP-II aptamer); higher = less ribozyme self-cleavage, higher mRNA level; details: reporter: mCherry (pCS4076), ligand present: no
Description: (§2)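 Hammerhead (sTRSV) ribozyme switch libraries with a ligand aptamer grafted on stem I and a randomized N4-6 loop II, cloned into the 3' UTR of mCherry and transiently transfected into HEK293T cells; RNA-Seq 72 h post transfection with ligand added 1 h before transfection; RNA read count / plasmid DNA read count normalized to the non-cleaving sTRSVctl (x100), log10; sequences with >100 DNA reads. FACS-Seq: lentiviral library sorted into 6 bins after 48 h ligand, log-normal fit mean of mCherry/BFP scaled to controls. Printed sequences are partial switch sequences.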

cyclic di-GMP [3] = variants of: B1; experiment: FACS-Seq fitted mean relative fluorescence mCherry/BFP with ligand (log10 relative fluorescence); HEK293T; ligand: cyclic di-GMP (c-di-GMP-II aptamer); ligand concentration (+) FACS-Seq: 1 mM; higher = higher reporter protein expression; details: ligand present: yes
In short: as §1

cyclic di-GMP [4] = variants of: B1; experiment: normalized RNA/DNA level with ligand (relative to sTRSVctl = 100) (log10 (% of sTRSVctl)); HEK293T; ligand: cyclic di-GMP (c-di-GMP-II aptamer); ligand concentration (+) RNA-Seq: 1 mM; higher = less ribozyme self-cleavage, higher mRNA level; details: reporter: mCherry (pCS4076), ligand present: yes
Description: as §2

Row | Variant | FACS-Seq fitted mean (log10) (cyclic di-GMP [1]) | normalized RNA/DNA level without ligand (log10) (cyclic di-GMP [2]) | FACS-Seq fitted mean (log10) (cyclic di-GMP [3]) | normalized RNA/DNA level with ligand (log10) (cyclic di-GMP [4])
1 | GCUGUCACCGAGAAACUGUGAAGUAUAUCUUAAACCUGGGCACUUAAAAGAUAUAUGGAGUUAGUAGUGCAACCUGCUCGGUCUGAUGAGUCCCAUGGAGGACGAAACAGC [CAUGGA] | -0.378 ± 0.071 | 1.52 ± 0.052 | -0.00583 ± 0.069 | 1.74 ± 0.077
2 | GCUGUCACCGAGAAACUGUGAAGUAUAUCUUAAACCUGGGCACUUAAAAGAUAUAUGGAGUUAGUAGUGCAACCUGCUCGGUCUGAUGAGUCCGAUGCAGGACGAAACAGC [GAUGCA] | 0.17 ± 0.18 | 1.83 ± 0.066 | 0.358 ± 0.026 | 1.9 ± 0.12
3 | GCUGUCACCGAGAAACUGUGAAGUAUAUCUUAAACCUGGGCACUUAAAAGAUAUAUGGAGUUAGUAGUGCAACCUGCUCGGUCUGAUGAGUCCGAUCGAGGACGAAACAGC [GAUCGA] | -0.635 ± 0.0097 | 1.64 ± 0.033 | -0.425 ± 0.16 | 1.78 ± 0.094
4 | GCUGUCACCGAGAAACUGUGAAGUAUAUCUUAAACCUGGGCACUUAAAAGAUAUAUGGAGUUAGUAGUGCAACCUGCUCGGUCUGAUGAGUCCUAUGACGGACGAAACAGC [UAUGAC] | -0.234 ± 0.026 | 1.71 ± 0.057 | 0.133 ± 0.1 | 1.87 ± 0.1
5 | GCUGUCACCGAGAAACUGUGAAGUAUAUCUUAAACCUGGGCACUUAAAAGAUAUAUGGAGUUAGUAGUGCAACCUGCUCGGUCUGAUGAGUCCUAUGAAGGACGAAACAGC [UAUGAA] | -0.265 ± 0.024 | 1.64 ± 0.018 | -0.0026 ± 0.016 | 1.78 ± 0.08
6 | GCUGUCACCGAGAAACUGUGAAGUAUAUCUUAAACCUGGGCACUUAAAAGAUAUAUGGAGUUAGUAGUGCAACCUGCUCGGUCUGAUGAGUCCUAUGAUGGACGAAACAGC [UAUGAU] | -0.525 ± 0.18 | 1.597 ± 0.0092 | -0.0494 ± 0.041 | 1.79 ± 0.12
7 | GCUGUCACCGAGAAACUGUGAAGUAUAUCUUAAACCUGGGCACUUAAAAGAUAUAUGGAGUUAGUAGUGCAACCUGCUCGGUCUGAUGAGUCCAAUGAGGGACGAAACAGC [AAUGAG] | -0.328 ± 0.065 | 1.54 ± 0.048 | 0.0671 ± 0.032 | 1.71 ± 0.093
8 | GCUGUCACCGAGAAACUGUGAAGUAUAUCUUAAACCUGGGCACUUAAAAGAUAUAUGGAGUUAGUAGUGCAACCUGCUCGGUCUGAUGAGUCCAAUGAAGGACGAAACAGC [AAUGAA] | -0.0795 ± 0.021 | 1.46 ± 0.097 | 0.113 ± 0.065 | 1.63 ± 0.097
9 | GCUGUCACCGAGAAACUGUGAAGUAUAUCUUAAACCUGGGCACUUAAAAGAUAUAUGGAGUUAGUAGUGCAACCUGCUCGGUCUGAUGAGUCCAAUGAUGGACGAAACAGC [AAUGAU] | -0.104 ± 0.17 | 1.581 ± 0.0096 | 0.206 ± 0.048 | 1.76 ± 0.034
10 | GCUGUCACCGAGAAACUGUGAAGUAUAUCUUAAACCUGGGCACUUAAAAGAUAUAUGGAGUUAGUAGUGCAACCUGCUCGGUCUGAUGAGUCCCAUCGAGGACGAAACAGC [CAUCGA] | -0.063 ± 0.043 | 1.64 ± 0.057 | 0.144 ± 0.0063 | 1.78 ± 0.07
11 | GCUGUCACCGAGAAACUGUGAAGUAUAUCUUAAACCUGGGCACUUAAAAGAUAUAUGGAGUUAGUAGUGCAACCUGCUCGGUCUGAUGAGUCCCAUGACGGACGAAACAGC [CAUGAC] | -0.0513 ± 0.12 | 1.63 ± 0.033 | 0.217 ± 0.061 | 1.79 ± 0.13
12 | GCUGUCACCGAGAAACUGUGAAGUAUAUCUUAAACCUGGGCACUUAAAAGAUAUAUGGAGUUAGUAGUGCAACCUGCUCGGUCUGAUGAGUCCCAUGAAGGACGAAACAGC [CAUGAA] | -0.704 ± 0.022 | 1.28 ± 0.092 | -0.4855 ± 0.00097 | 1.43 ± 0.12
13 | GCUGUCACCGAGAAACUGUGAAGUAUAUCUUAAACCUGGGCACUUAAAAGAUAUAUGGAGUUAGUAGUGCAACCUGCUCGGUCUGAUGAGUCCCAUCUCGGACGAAACAGC [CAUCUC] | -0.977 ± 0.064 | 1.74 ± 0.051 | -0.802 ± 0.028 | 1.86 ± 0.11
